Data as given in US5684129.

Key:
[1] = target: Type 1 human interferon receptor complex (human) (UniProt P17181); assay: 125I-ligand binding to T98G cells at +4° C., Scatchard analysis, high affinity component
[2] = target: Type 1 human interferon receptor complex (human) (UniProt P17181)

Row | Kd [1] | antiviral specific activity (EMCV on T98G cells) [2] | Substance
1 | 7.7 pM | 3e+09 U/mg protein | IFN-alphaCon1 (ligand)
2 | – | 7.1e+06 U/mg protein | IFN-alpha1 Nδ4 (ligand)
